Measured values as given in PMC3546673.

Legend:
[1] = molecular target: F-actin (actin filaments) (UniProt P68135); test: single filament binding assay (fluorescence microscopy); actin filaments from 1 μM G-actin with rhodamine-phalloidin (1 μM) and Alexa-488-labeled trx protein (5 μM), 22 °C, 30 min; diluted 1:50 and put on poly-L-lysine-coated coverslips
[2] = molecular target: gelsolin-capped actin filaments (UniProt P68135); test: single filament binding assay (fluorescence microscopy); gelsolin-capped actin filaments labeled with rhodamine-phalloidin, incubated with Alexa-488-conjugated trx-PT or mutant (5 μM), 22 °C, 30 min; diluted 1:50 and put on poly-L-lysine-coated coverslips

Work on “recombinant thioredoxin-phostensin (trx-PT) (natural protein)” yielded a percent localized at the filament end [1] of 96%.

With trx-PT(35–165) (domain or fragment) the percent localized at a filament end [2] was 96%.

Substance trx-PT(125–165) (domain or fragment) has a percent bound to the sides of actin filaments [1] of 98%.
